Numbering of substitutions follows the chain as printed. Numbered stars: 1 amine (or outer) side, 2 acyl side, 3 side chain; on linkers, the order of the positions; unused ones are H or OH. Bridge positions count the residues as written; N and C are the ends. Side chains are listed from the residue outwards. Ends that are not written are not given here. * marks the point of attachment. C20 diacid = O=C(O)CCCCCCCCCCCCCCCCCCC(=O)*; γGlu = O=C(O)[C@H](CCC(=O)[*:2])N[*:1]; AEEA = NCCOCCOCC(=O)O
B1: N^ε1-[(4S)-4-carboxy-4-(19-carboxynonadecanoylamino)butanoyl]-[Arg17,Pro21,Pro27]-h-amylin (peptide)
peptide: K([γGlu-C20 diacid])CNTATCATQRLANFLRHSSPNFGAIPSSTNVGSNTY-NH2
modifications: disulfide 2-7; N-terminus assumed
SMILES: CC[C@H](C)[C@H](NC(=O)[C@H](C)NC(=O)CNC(=O)[C@H](Cc1ccccc1)NC(=O)[C@H](CC(N)=O)NC(=O)[C@@H]1CCCN1C(=O)[C@H](CO)NC(=O)[C@H](CO)NC(=O)[C@H](Cc1c[nH]cn1)NC(=O)[C@H](CCCNC(=N)N)NC(=O)[C@H](CC(C)C)NC(=O)[C@H](Cc1ccccc1)NC(=O)[C@H](CC(N)=O)NC(=O)[C@H](C)NC(=O)[C@H](CC(C)C)NC(=O)[C@H](CCCNC(=N)N)NC(=O)[C@H](CCC(N)=O)NC(=O)[C@@H](NC(=O)[C@H](C)NC(=O)[C@@H]1CSSC[C@H](NC(=O)[C@@H](N)CCCCNC(=O)CC[C@H](NC(=O)CCCCCCCCCCCCCCCCCCC(=O)O)C(=O)O)C(=O)N[C@@H](CC(N)=O)C(=O)N[C@@H]([C@@H](C)O)C(=O)N[C@@H](C)C(=O)N[C@@H]([C@@H](C)O)C(=O)N1)[C@@H](C)O)C(=O)N1CCC[C@H]1C(=O)N[C@@H](CO)C(=O)N[C@@H](CO)C(=O)N[C@H](C(=O)N[C@@H](CC(N)=O)C(=O)N[C@H](C(=O)NCC(=O)N[C@@H](CO)C(=O)N[C@@H](CC(N)=O)C(=O)N[C@H](C(=O)N[C@@H](Cc1ccc(O)cc1)C(N)=O)[C@@H](C)O)C(C)C)[C@@H](C)O
notes: also called compound 48
B2: N^ε-[2-[2-[2-[[(4S)-4-carboxy-4-(19-carboxynonadecanoylamino)butanoyl]amino]ethoxy]ethoxy]acetyl]Lys[Arg1,Arg17,Pro21,Pro27,His35]-h-amylin (peptide)
peptide: K([AEEA-γGlu-C20 diacid])RCNTATCATQRLANFLRHSSPNFGAIPSSTNVGSHTY-NH2
modifications: disulfide 3-8; N-terminus assumed
SMILES: CC[C@H](C)[C@H](NC(=O)[C@H](C)NC(=O)CNC(=O)[C@H](Cc1ccccc1)NC(=O)[C@H](CC(N)=O)NC(=O)[C@@H]1CCCN1C(=O)[C@H](CO)NC(=O)[C@H](CO)NC(=O)[C@H](Cc1c[nH]cn1)NC(=O)[C@H](CCCNC(=N)N)NC(=O)[C@H](CC(C)C)NC(=O)[C@H](Cc1ccccc1)NC(=O)[C@H](CC(N)=O)NC(=O)[C@H](C)NC(=O)[C@H](CC(C)C)NC(=O)[C@H](CCCNC(=N)N)NC(=O)[C@H](CCC(N)=O)NC(=O)[C@@H](NC(=O)[C@H](C)NC(=O)[C@@H]1CSSC[C@H](NC(=O)[C@H](CCCNC(=N)N)NC(=O)[C@@H](N)CCCCNC(=O)COCCOCCNC(=O)CC[C@H](NC(=O)CCCCCCCCCCCCCCCCCCC(=O)O)C(=O)O)C(=O)N[C@@H](CC(N)=O)C(=O)N[C@@H]([C@@H](C)O)C(=O)N[C@@H](C)C(=O)N[C@@H]([C@@H](C)O)C(=O)N1)[C@@H](C)O)C(=O)N1CCC[C@H]1C(=O)N[C@@H](CO)C(=O)N[C@@H](CO)C(=O)N[C@H](C(=O)N[C@@H](CC(N)=O)C(=O)N[C@H](C(=O)NCC(=O)N[C@@H](CO)C(=O)N[C@@H](Cc1c[nH]cn1)C(=O)N[C@H](C(=O)N[C@@H](Cc1ccc(O)cc1)C(N)=O)[C@@H](C)O)C(C)C)[C@@H](C)O
notes: also called compound 45
B3: N^α1-[(4S)-4-carboxy-4-(19-carboxynonadecanoylamino)butanoyl]-[Glu14,Arg17,Pro21,Pro27]-h-amylin (peptide)
peptide: KCNTATCATQRLAEFLRHSSPNFGAIPSSTNVGSNTY
modifications: C20 diacid-gGlu on the alpha amino group of the N-terminal residue; disulfide bridge Cys2-Cys7; C-terminal amide
notes: also called compound 9
B4: N^α1-[(4S)-4-carboxy-4-(19-carboxynonadecanoylamino)butanoyl]-[Arg17,Pro21,Pro27,Pro31,Glu35]-h-amylin (peptide)
peptide: {C20 diacid-γGlu}-KCNTATCATQRLANFLRHSSPNFGAIPSSTPVGSETY-NH2
modifications: disulfide 2-7
SMILES: CC[C@H](C)[C@H](NC(=O)[C@H](C)NC(=O)CNC(=O)[C@H](Cc1ccccc1)NC(=O)[C@H](CC(N)=O)NC(=O)[C@@H]1CCCN1C(=O)[C@H](CO)NC(=O)[C@H](CO)NC(=O)[C@H](Cc1c[nH]cn1)NC(=O)[C@H](CCCNC(=N)N)NC(=O)[C@H](CC(C)C)NC(=O)[C@H](Cc1ccccc1)NC(=O)[C@H](CC(N)=O)NC(=O)[C@H](C)NC(=O)[C@H](CC(C)C)NC(=O)[C@H](CCCNC(=N)N)NC(=O)[C@H](CCC(N)=O)NC(=O)[C@@H](NC(=O)[C@H](C)NC(=O)[C@@H]1CSSC[C@H](NC(=O)[C@H](CCCCN)NC(=O)CC[C@H](NC(=O)CCCCCCCCCCCCCCCCCCC(=O)O)C(=O)O)C(=O)N[C@@H](CC(N)=O)C(=O)N[C@@H]([C@@H](C)O)C(=O)N[C@@H](C)C(=O)N[C@@H]([C@@H](C)O)C(=O)N1)[C@@H](C)O)C(=O)N1CCC[C@H]1C(=O)N[C@@H](CO)C(=O)N[C@@H](CO)C(=O)N[C@H](C(=O)N1CCC[C@H]1C(=O)N[C@H](C(=O)NCC(=O)N[C@@H](CO)C(=O)N[C@@H](CCC(=O)O)C(=O)N[C@H](C(=O)N[C@@H](Cc1ccc(O)cc1)C(N)=O)[C@@H](C)O)C(C)C)[C@@H](C)O
notes: also called compound 28
B5: N^α1-[(4S)-4-carboxy-4-(19-carboxynonadecanoylamino)butanoyl]-[Arg17,Pro21,Pro27,Arg34]-h-amylin (peptide)
peptide: B3 peptide with E14N, S34R
modifications: C20 diacid-gGlu on the alpha amino group of the N-terminal residue; disulfide bridge Cys2-Cys7; C-terminal amide
notes: also called compound 39
B6: N^α1-[(4S)-4-carboxy-4-(19-carboxynonadecanoylamino)butanoyl]-[Arg17,Pro21,Pro27,Glu35]-h-amylin (peptide)
peptide: B3 peptide with E14N, N35E
modifications: C20 diacid-gGlu on the alpha amino group of the N-terminal residue; disulfide bridge Cys2-Cys7; C-terminal amide
notes: also called compound 23
B7: N^α1-[2-[2-[2-[[2-[2-[2-[[(4S)-4-carboxy-4-(19-carboxynonadecanoylamino)butanoyl]amino]ethoxy]ethoxy]acetyl]amino]ethoxy]ethoxy]acetyl]-[Glu14,Arg17,Pro21,Pro27 … (peptide)
peptide: {C20 diacid-γGlu-AEEA-AEEA}-KCNTATCATQRLAEFLRHSSPNFGAIPSSTNVGSNTP-NH2
modifications: disulfide 2-7
SMILES: CC[C@H](C)[C@H](NC(=O)[C@H](C)NC(=O)CNC(=O)[C@H](Cc1ccccc1)NC(=O)[C@H](CC(N)=O)NC(=O)[C@@H]1CCCN1C(=O)[C@H](CO)NC(=O)[C@H](CO)NC(=O)[C@H](Cc1c[nH]cn1)NC(=O)[C@H](CCCNC(=N)N)NC(=O)[C@H](CC(C)C)NC(=O)[C@H](Cc1ccccc1)NC(=O)[C@H](CCC(=O)O)NC(=O)[C@H](C)NC(=O)[C@H](CC(C)C)NC(=O)[C@H](CCCNC(=N)N)NC(=O)[C@H](CCC(N)=O)NC(=O)[C@@H](NC(=O)[C@H](C)NC(=O)[C@@H]1CSSC[C@H](NC(=O)[C@H](CCCCN)NC(=O)COCCOCCNC(=O)COCCOCCNC(=O)CC[C@H](NC(=O)CCCCCCCCCCCCCCCCCCC(=O)O)C(=O)O)C(=O)N[C@@H](CC(N)=O)C(=O)N[C@@H]([C@@H](C)O)C(=O)N[C@@H](C)C(=O)N[C@@H]([C@@H](C)O)C(=O)N1)[C@@H](C)O)C(=O)N1CCC[C@H]1C(=O)N[C@@H](CO)C(=O)N[C@@H](CO)C(=O)N[C@H](C(=O)N[C@@H](CC(N)=O)C(=O)N[C@H](C(=O)NCC(=O)N[C@@H](CO)C(=O)N[C@@H](CC(N)=O)C(=O)N[C@H](C(=O)N1CCC[C@H]1C(N)=O)[C@@H](C)O)C(C)C)[C@@H](C)O
notes: also called compound 20
B8: N^α1-[(4S)-4-carboxy-4-(19-carboxynonadecanoylamino)butanoyl]-[Arg17,Pro21,Pro27,His34]-h-amylin (peptide)
peptide: B3 peptide with E14N, S34H
modifications: C20 diacid-gGlu on the alpha amino group of the N-terminal residue; disulfide bridge Cys2-Cys7; C-terminal amide
notes: also called compound 40

Target: T1, human calcitonin receptor (human, UniProt P30988 25-474)
T1 construct: whole, on cells; also called hCTR; hCT
T1 sequence (looked up): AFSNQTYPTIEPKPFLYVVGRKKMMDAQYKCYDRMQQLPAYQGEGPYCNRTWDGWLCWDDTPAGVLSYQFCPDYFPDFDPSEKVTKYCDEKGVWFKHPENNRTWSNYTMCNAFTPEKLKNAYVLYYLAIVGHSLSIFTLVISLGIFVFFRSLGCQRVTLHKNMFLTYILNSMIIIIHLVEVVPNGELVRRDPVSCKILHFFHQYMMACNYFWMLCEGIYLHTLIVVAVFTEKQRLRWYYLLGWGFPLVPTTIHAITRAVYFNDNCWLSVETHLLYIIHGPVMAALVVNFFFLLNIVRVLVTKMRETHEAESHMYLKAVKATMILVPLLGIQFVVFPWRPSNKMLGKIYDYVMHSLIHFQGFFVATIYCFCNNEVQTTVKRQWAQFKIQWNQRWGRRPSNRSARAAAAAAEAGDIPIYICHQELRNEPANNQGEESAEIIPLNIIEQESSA
Test: SPA competition with 125I-calcitonin, membranes of BHK hCTR cells (Assay VII)
Summary of the method: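 BHK hCTR membranes 35 ng/μL + SPA beads 0.05 mg/well; buffer 50 mM Hepes pH 7.4, 1 mM CaCl2, 5 mM MgCl₂, 0.1% OA, 0.02% Tween20. 120 min, 25° C., shaking. Scintillation count; IC50 by one-site binding competition.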

Row | Binder | IC50 [nM]
1 | B1 | 30.9
2 | B2 | 14.8

Target: T2, human calcitonin receptor (human, UniProt P30988 25-474)
T2 construct: whole, on cells; also called hCTR; hCT
T2 sequence (looked up): T1 sequence (looked up)
Test: SPA competition binding, membranes with human calcitonin receptor, displacement of 125I-calcitonin (Assay VII)
Procedure: Membranes were prepared in the following way; the cells were rinsed with PBS and incubated with Versene for approximately 5 min before harvesting. The cells were flushed with PBS and the cell-suspension was centrifuged for 5 min at 1000 rpm. Cells were homogenized (Ultrathurrax) in a buffer containing 20 mM Na-HEPES and 10 mM EDTA (pH 7.4) and centrifuged at 20.000 rpm for 15 min. The resulting pellet was resuspended, homogenized and centrifuged (20.000 rpm, 15 min) in a buffer containing 20 mM Na-HEPES and 0.1 mM EDTA (pH 7.4, buffer 2). The resulting pellet was resuspended in buffer 2 and protein concentration was measured (BCA protein Assay, Pierce). The homogenate was kept cold during the whole procedure. The membranes were kept at −80° C. until use. Assay was performed in a 384 well Optiplate (PerkinElmer) in a total volume of 40 ul. Membranes were mixed with SPA beads. Final concentration of membranes 35 ng/μL final and Final concentration of SPA beads was 0.05 mg/well. Test-compounds were dissolved in DMSO and further diluted in assay buffer (50 mM Hepes, pH 7.4, 1 mM CaCl2, 5 mM MgCl₂, 0.1% OA and 0.02% Tween20). […] The final mixture was incubated for 120 min with shaking at 400 rpm at 25° C. prior to centrifugation (1500 rpm, 10 min). Samples were analyzed on TopCounter™ (Packard). The […] was calculated using (one site binding competition analysis) GraphPad Prism5 as a measure of receptor affinity.

Row | Binder | IC50 [nM]
3 | B3 | 1.14
4 | B4 | 12.5
5 | B5 | 19.3
6 | B6 | 21.8
7 | B7 | 0.787
8 | B8 | 17.1

Target: T2, human calcitonin receptor
Test: ratio of IC50 at hCTR to IC50 at the human amylin receptor (reference)
Procedure: The resulting pellet was resuspended, homogenized and centrifuged (20.000 rpm, 15 min) in a buffer containing 20 mM Na-HEPES and 0.1 mM EDTA (pH 7.4, buffer 2). The resulting pellet was resuspended in buffer 2 and protein concentration was measured (BCA protein Assay, Pierce). The homogenate was kept cold during the whole procedure. The membranes were kept at −80° C. until use. The assay was performed in a 384 well Optiplate (PerkinElmer) in a total volume of 40 ul. Membranes were mixed with SPA beads. Final concentration of membranes 35 ng/μL final and SPA beads was 0.05 mg/well. Test-compounds were dissolved in DMSO and further diluted in assay buffer (50 mM Hepes, pH 7.4, 1 mM CaCl2, 5 mM MgCl₂, 0.1% OA and 0.02% Tween20). […] The final mixture was incubated with shaking at 400 rpm for 120 min at 25° C. prior to centrifugation (1500 rpm, 10 min). Samples were analyzed on TopCounter™ (Packard). The IC₅₀ was calculated using (one site binding competition analysis) GraphPad Prism5 as a measure of receptor affinity.
Membranes were prepared in the following way; the cells were rinsed with PBS and incubated with Versene for approximately 5 min before harvesting. The cells were flushed with PBS and the cell-suspension was centrifuged for 5 min at 1000 rpm. Cells were homogenized (Ultrathurrax) in a buffer containing 20 mM Na-HEPES and 10 mM EDTA (pH 7.4) and centrifuged at 20.000 rpm for 15 min. The resulting pellet was resuspended, homogenized and centrifuged (20.000 rpm, 15 min) in a buffer containing 20 mM Na-HEPES and 0.1 mM EDTA (pH 7.4, buffer 2). The resulting pellet was resuspended in buffer 2 and protein concentration was measured (BCA protein Assay, Pierce). The homogenate was kept cold during the whole procedure. The membranes were kept at −80° C. until use. Assay was performed in a 384 well Optiplate (PerkinElmer) in a total volume of 40 ul. Membranes were mixed with SPA beads.

Row | Binder | Ratio hCT/hAmylin binding
9 | B3 | 8
10 | B4 | 20.5
11 | B5 | 29
12 | B6 | 25
13 | B7 | 3.6
14 | B8 | 31.1

Source: patent publication US20140087995A1 (published 2014)
